Data on 18 molecules can be found in patent publication US20260285998 (published 2026).

Changes are numbered by the printed parent chain.

The target of experiment [1] is T1, human BCMA (cell surface) (human).
T1 chain: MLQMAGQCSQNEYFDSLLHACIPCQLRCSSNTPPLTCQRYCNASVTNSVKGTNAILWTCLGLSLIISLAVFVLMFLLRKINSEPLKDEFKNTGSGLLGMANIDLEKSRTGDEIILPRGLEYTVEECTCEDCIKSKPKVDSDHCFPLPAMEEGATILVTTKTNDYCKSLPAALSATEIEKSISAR
Description: FACS. Background: In flow cytometry, cells or beads pass a laser one at a time.

A further experiment addresses cynomolgus BCMA-Fc (cynomolgus). Description: SPR, 25C. (In general: SPR reads the build-up and loss of mass on a sensor chip optically.)
Another experiment has as its target T2, human BCMA-Fc (human).
T2 chain: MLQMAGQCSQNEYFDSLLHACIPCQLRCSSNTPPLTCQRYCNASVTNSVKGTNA
Briefly: SPR, 25C.

Chain of cynomolgus BCMA-Fc (cynomolgus) (chain, as listed by the source): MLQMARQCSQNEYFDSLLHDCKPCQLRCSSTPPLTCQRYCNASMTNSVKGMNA

B1: P1AG7397 BCMA arm (antibody, V domains shown)
VH: EVQLLESGGGLVQPGGSLRLSCAASGFTFSNAWMDWVRQAPGKGLEWVSQITAKSNNYATYYADSVKGRFTISRDNSKNTLYLQMNSLRAEDTAVYYCTDDGYHWGQGTLVTVSS
VL: DIQMTQSPSSLSASVGDRVTITCRASEDIRNGLAWYQQKPGKAPKLLIYNANSLHTGVPSRFSGSGSGTDFTLTISSLQPEDFATYYCEDTSKYPYTFGQGTKLEIK
The EC50 is the midpoint of the concentration-response curve. A lower EC50 goes with a more potent agent. In experiment [1], B1 showed an EC50 of 23.7 nM.

B2: P1AG5028 (54_VH2a/VL1a) (antibody, V domains shown)
VH: B1 VH
VL: B1 VL with D1A
A word on the Kd: it is the constant that tells how readily two partners part at equilibrium. As to B2, the Kd with cynomolgus BCMA-Fc came to 3.8 nM; with human BCMA-Fc, 2.7 nM.

B3: P1AG5067 (54_VH1a/VL1a_L1_pGL) (antibody, V domains shown)
VH: B1 VH with L5V, Q13K, S49G, D64A, S65P, N76D, R89K, A90T
VL: B1 VL with D1A, G32D, A34G
Take B3: the Kd with cynomolgus BCMA-Fc turned out to be 1.7 nM; with human BCMA-Fc, 3.4 nM.

B4: P1AG5065 (54_VH1a_Y292D/VL1a_T699S) (antibody, V domains shown)
VH: B1 VH with L5V, Q13K, S49G, Y61D, D64A, S65P, N76D, R89K, A90T
VL: B1 VL with D1A, T56S
For the molecule B4, the Kd worked out at 6.4 nM with cynomolgus BCMA-Fc and 2.6 nM in the experiment with human BCMA-Fc.

B5: P1AG5046 (54_VH1b/VL1a_T699S) (antibody, V domains shown)
VH: B1 VH with L5V, Q13K, V48I, S49A, D64A, S65P, N76D, R89K, A90T
VL: B1 VL with D1A, T56S
On to B5, for which the Kd with cynomolgus BCMA-Fc was 3.9 nM; with human BCMA-Fc, 1.9 nM.

B6: P1AG5072 (54_VH1b/VL1a) (antibody, V domains shown)
VH: B1 VH with L5V, Q13K, V48I, S49A, D64A, S65P, N76D, R89K, A90T
VL: B1 VL with D1A
For B6, the Kd is 3.2 nM with cynomolgus BCMA-Fc and 1.3 nM with human BCMA-Fc.

B7: P1AG5064 (54_VH1b/VL1a_N651A_N695S) (antibody, V domains shown)
VH: B1 VH with L5V, Q13K, V48I, S49A, D64A, S65P, N76D, R89K, A90T
VL: B1 VL with D1A, N50A, N52S
With B7, the Kd with cynomolgus BCMA-Fc is 13 nM; with human BCMA-Fc, 3.5 nM.

B8: P1AG5030 (54_VH1b/VL2a) (antibody, V domains shown)
VH: B1 VH with L5V, Q13K, V48I, S49A, D64A, S65P, N76D, R89K, A90T
VL: B1 VL
Take B8: the Kd with cynomolgus BCMA-Fc was 2.2 nM; with human BCMA-Fc, 1.3 nM.

B9: P1AG5014 (54_VH1a_Y292D/VL1a_L1_pGL) (antibody, V domains shown)
VH: B1 VH with L5V, Q13K, S49G, Y61D, D64A, S65P, N76D, R89K, A90T
VL: B1 VL with D1A, G32D, A34G
Regarding B9, the Kd in the experiment with cynomolgus BCMA-Fc came out at 0.11 nM; with human BCMA-Fc it was 1.7 nM.

B10: P1AG5036 (E04_VH1a/VL1f) (antibody, V domains shown)
VH: QVQLVQSGAEVKKPGASVKVSCKASGYTFTNYWMHWVRQAPGQGLEWMGIIHPNSGSTNYNEKFQGRVTMTRDTSTSTVYMELSSLRSEDTAVYYCARGIYDYPFAYWGQGTLVTVSS
VL: DIQMTQSPSSLSASVGDRVTITCRASESVSIHGTHLMHWYQQKPGKAPKLLIYAASSLQSGVPSRFSGSGSETDFTLTISSLQPEDFATYYCQQSIEDPYTFGGGTKVEIK
In the case of B10, the Kd with cynomolgus BCMA-Fc was determined as 9.5 nM; in the experiment with human BCMA-Fc, 2.9 nM.

B11: P1AG5078 (E04_VH1b/VL1d) (antibody, V domains shown)
VH: B10 VH with R72V, T74K
VL: B10 VL with S57N
For the molecule B11, the Kd in the experiment with cynomolgus BCMA-Fc was found to be 22 nM; in the experiment with human BCMA-Fc, 2.4 nM.

B12: P1AG5026 (E04_VH1b/VL1a) (antibody, V domains shown)
VH: B10 VH with R72V, T74K
VL: B10 VL with S57N, Q59E, E72G
For B12, the values for the Kd with cynomolgus BCMA-Fc and with human BCMA-Fc were 33 nM and 2.7 nM, respectively.

B13: P1AG5059 (E04_VH1a/VL1g) (antibody, V domains shown)
VH: B10 VH
VL: B10 VL with S57N, Q59E, E72G, Y91F
For B13, the Kd worked out at 30 nM with cynomolgus BCMA-Fc and 2.3 nM with human BCMA-Fc.

B14: P1AG5063 (E04_VH1a/VL1a) (antibody, V domains shown)
VH: B10 VH
VL: B10 VL with S57N, Q59E, E72G
Regarding B14, the figures for the Kd in the experiment with cynomolgus BCMA-Fc and with human BCMA-Fc were 28 nM and 1.6 nM, respectively.

B15: P1AG5060 (E04_VH1b/VL1f) (antibody, V domains shown)
VH: B10 VH with R72V, T74K
VL: B10 VL
Turning to B15, the Kd was 14 nM with cynomolgus BCMA-Fc and 3.2 nM in the experiment with human BCMA-Fc.

B16: P1AG5043 (E04_VH1a/VL1d) (antibody, V domains shown)
VH: B10 VH
VL: B10 VL with S57N
Consider B16, for which the Kd with cynomolgus BCMA-Fc was determined as 14 nM; with human BCMA-Fc, 2.6 nM.

B17: P1AG5021 (E04_VH1b/VL1g) (antibody, V domains shown)
VH: B10 VH with R72V, T74K
VL: B10 VL with S57N, Q59E, E72G, Y91F
B17: the Kd with cynomolgus BCMA-Fc amounted to 35 nM; with human BCMA-Fc it was 2.8 nM.

B18: P1AG5034 (E04_VH1b/VL1e) (antibody, V domains shown)
VH: B10 VH with R72V, T74K
VL: B10 VL with E72G
Take B18: the Kd in the experiment with cynomolgus BCMA-Fc worked out at 32 nM; in the experiment with human BCMA-Fc it was 3.2 nM.
